According to US20210130437A1:

Key:
CD96 [1] = molecular target: T1, CD96 (UniProt P40200); assay: flow cytometry, CD96-expressing cells, secondary reagent alone
T1 sequence (looked up): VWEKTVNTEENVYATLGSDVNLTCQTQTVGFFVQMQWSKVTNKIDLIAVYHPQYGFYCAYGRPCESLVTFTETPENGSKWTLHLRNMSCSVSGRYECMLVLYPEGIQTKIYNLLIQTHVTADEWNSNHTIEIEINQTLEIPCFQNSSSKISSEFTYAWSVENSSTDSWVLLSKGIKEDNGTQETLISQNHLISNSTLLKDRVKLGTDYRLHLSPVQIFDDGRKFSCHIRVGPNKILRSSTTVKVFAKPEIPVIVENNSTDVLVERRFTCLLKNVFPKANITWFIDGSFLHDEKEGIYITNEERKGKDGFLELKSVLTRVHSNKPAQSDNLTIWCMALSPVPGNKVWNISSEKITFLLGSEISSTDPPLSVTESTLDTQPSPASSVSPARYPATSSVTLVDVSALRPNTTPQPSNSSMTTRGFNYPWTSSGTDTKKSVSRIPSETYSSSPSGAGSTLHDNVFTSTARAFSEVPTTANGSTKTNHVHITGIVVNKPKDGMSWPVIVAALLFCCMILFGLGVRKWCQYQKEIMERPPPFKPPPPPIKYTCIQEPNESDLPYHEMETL

[2] = molecular target: CD226 (Homo sapiens (Human)) (UniProt Q15762); assay: flow cytometry, CD226-expressing cells, secondary reagent alone
[3] = molecular target: TIGIT (Homo sapiens (Human)) (UniProt Q495A1); assay: flow cytometry, TIGIT-expressing cells, secondary reagent alone
CD112R [4] = molecular target: CD112R (UniProt Q6DKI7); assay: flow cytometry, CD112R-expressing cells, secondary reagent alone
CD96 [5] = molecular target: T1, CD96; assay: flow cytometry, 100 nM Fc fusion on cells expressing CD96
[6] = molecular target: human PD-1 and human TIGIT co-expressed on Jurkat cells (Jurkat/PD-1/TIGIT cells) (human); assay: flow cytometry, Jurkat/PD-1/TIGIT cells
[7] = molecular target: human PD-1 expressed on cells (Jurkat/PD-1 cells) (human) (UniProt Q15116); assay: flow cytometry, Jurkat/PD-1 cells
[8] = molecular target: human TIGIT expressed on cells (Jurkat/TIGIT cells) (human) (UniProt Q495A1); assay: flow cytometry, Jurkat/TIGIT cells
[9] = molecular target: rB7H6.Fc (recombinant B7-H6 Fc fusion protein, R&D Systems) (human) (UniProt Q68D85); assay: flow cytometry of yeast-displayed parental NKp30 stained with […] rB7H6.Fc
CD112R [10] = molecular target: CD112R (UniProt Q6DKI7); assay: flow cytometry, CD112R-expressing cells, 100 nM
[11] = molecular target: PD-1 stably expressed on Jurkat/IL-2 reporter cells (Jurkat/PD-1) (human) (UniProt Q15116); assay: cell-based or functional assay
PD-1 stably expressed on Jurkat/IL-2 reporter cells (Jurkat/PD-1) (human), sequence (Q15116 25-288): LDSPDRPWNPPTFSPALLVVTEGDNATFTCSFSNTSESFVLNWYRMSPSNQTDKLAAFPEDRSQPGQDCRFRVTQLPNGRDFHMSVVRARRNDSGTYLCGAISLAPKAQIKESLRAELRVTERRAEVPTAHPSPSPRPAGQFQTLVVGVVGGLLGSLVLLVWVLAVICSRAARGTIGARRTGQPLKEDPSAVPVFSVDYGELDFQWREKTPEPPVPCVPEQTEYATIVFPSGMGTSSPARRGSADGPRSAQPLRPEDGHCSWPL

human PD-1 expressed on cells (Jurkat/PD-1 cells) (human), sequence (Q15116 21-288): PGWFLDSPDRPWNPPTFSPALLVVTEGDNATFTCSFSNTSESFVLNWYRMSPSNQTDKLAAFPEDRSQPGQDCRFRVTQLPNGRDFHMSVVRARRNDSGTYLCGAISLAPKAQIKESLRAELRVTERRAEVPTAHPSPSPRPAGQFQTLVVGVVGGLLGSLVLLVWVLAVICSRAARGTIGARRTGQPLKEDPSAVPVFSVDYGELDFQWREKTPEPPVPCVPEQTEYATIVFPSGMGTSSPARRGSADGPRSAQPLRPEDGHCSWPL
human PD-1 and human TIGIT co-expressed on Jurkat cells (Jurkat/PD-1/TIGIT cells) (human), sequence (chain, as listed by the source, chain 1 of 2): as the sequence (Q15116 21-288) above
human PD-1 and human TIGIT co-expressed on Jurkat cells (Jurkat/PD-1/TIGIT cells) (human), sequence (chain, as listed by the source, chain 2 of 2): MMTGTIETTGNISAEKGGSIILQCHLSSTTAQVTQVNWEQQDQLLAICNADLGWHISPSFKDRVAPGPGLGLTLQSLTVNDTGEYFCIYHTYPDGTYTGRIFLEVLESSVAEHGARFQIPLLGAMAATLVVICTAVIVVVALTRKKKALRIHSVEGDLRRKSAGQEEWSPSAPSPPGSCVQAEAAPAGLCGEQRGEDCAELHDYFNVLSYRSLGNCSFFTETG
CD112R, sequence (Q6DKI7 whole entry, the tested form may be a part): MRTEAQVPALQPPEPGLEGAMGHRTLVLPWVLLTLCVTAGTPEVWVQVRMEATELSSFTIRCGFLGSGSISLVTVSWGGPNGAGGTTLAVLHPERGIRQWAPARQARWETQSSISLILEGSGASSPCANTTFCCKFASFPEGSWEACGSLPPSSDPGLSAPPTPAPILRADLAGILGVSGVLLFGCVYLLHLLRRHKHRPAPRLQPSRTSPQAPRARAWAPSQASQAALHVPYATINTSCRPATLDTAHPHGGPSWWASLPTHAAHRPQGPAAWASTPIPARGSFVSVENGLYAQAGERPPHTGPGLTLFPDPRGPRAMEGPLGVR
human TIGIT expressed on cells (Jurkat/TIGIT cells) (human), sequence (Q495A1 22-244): as the sequence (chain, as listed by the source, chain 2 of 2) above
TIGIT (Homo sapiens (Human)), sequence (Q495A1 22-244): as the sequence (chain, as listed by the source, chain 2 of 2) above
rB7H6.Fc (recombinant B7-H6 Fc fusion protein, R&D Systems) (human), sequence (Q68D85 25-262 limits assumed): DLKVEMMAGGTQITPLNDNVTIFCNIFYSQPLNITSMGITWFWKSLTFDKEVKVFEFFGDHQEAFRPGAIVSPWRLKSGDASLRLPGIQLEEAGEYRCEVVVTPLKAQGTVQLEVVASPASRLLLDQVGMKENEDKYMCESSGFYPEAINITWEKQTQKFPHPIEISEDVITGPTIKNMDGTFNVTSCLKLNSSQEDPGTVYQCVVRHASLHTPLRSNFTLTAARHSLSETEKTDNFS
CD226 (Homo sapiens (Human)), sequence (Q15762 19-336): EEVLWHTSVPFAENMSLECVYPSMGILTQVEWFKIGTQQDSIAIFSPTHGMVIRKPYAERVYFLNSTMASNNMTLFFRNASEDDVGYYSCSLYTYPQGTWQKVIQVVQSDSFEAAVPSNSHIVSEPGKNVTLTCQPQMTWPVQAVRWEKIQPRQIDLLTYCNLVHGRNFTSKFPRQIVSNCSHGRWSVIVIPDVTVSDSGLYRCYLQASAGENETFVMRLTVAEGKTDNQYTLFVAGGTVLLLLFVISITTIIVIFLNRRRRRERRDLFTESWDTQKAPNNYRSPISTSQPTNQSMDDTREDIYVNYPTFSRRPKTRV

In the case of Anti-hFc PE (antibody), the MFI at 20 nM (CD96 [1]) is reported as 1060, the MFI at 20 nM [2] is reported as 1010 and the MFI at 20 nM [3] is reported as 1140. For the same substance, the MFI at 20 nM (CD112R [4]) was 1010.

For “CD112 variant IgV-Fc fusion V19A, N47K, N106Y, K116E, S118Y”, the MFI at 100 nM (CD96 [5]) was 2850.

With “Fc Control (heterodimer) (from UniProt P0DOX5 218-449; P0DOX5 218-449)” the MFI at 6.25 nM [6] was 48 MFI.

“Fc Control (homodimer) (from UniProt P0DOX5 218-449)” showed an MFI at 6.25 nM [6] of 66 MFI.

Substance “Human IgG (irrelevant Ig control) (antibody)” has a Fold increase over wildtype PD-L1 IgV-Fc [7] of 0 fold, an MFI at 6.25 nM [7] of 41 MFI and an MFI at 50 nM [7] of 198 MFI. It also gave an MFI at 6.25 nM [8] of 48 MFI and an MFI at 6.25 nM [6] of 41 MFI.

Substance “PD-L1 variant IgV-Fc I20L/K28E/D43G/N45D/V58A/Q89R (Fc fusion)” has a Fold increase over wildtype PD-L1 IgV-Fc [7] of 15.4 fold and an MFI at 50 nM [7] of 80500 MFI.

For “Wild Type CD155 full ECD Fc (from UniProt P15151 21-343) (Fc fusion)”, the MFI at 6.25 nM [6] was 249 MFI.

For “Wild Type PD-L2 full ECD Fc (from UniProt Q9BQ51 20-220) (Fc fusion)”, the MFI at 6.25 nM [6] was 314 MFI.

With “parental NKp30 strain (wild-type NKp30 IgC-like domain displayed on yeast) (from UniProt O14931 19-134) (receptor)” the MFI [9] was 90.

In the case of “variant CD112 IgV-Fc R12W, Y33H, Q79R, V101M, A112V (Fc fusion)”, the MFI at 100 nM (CD112R [10]) is reported as 2050.

“variant CD112 IgV-Fc Y33H, A112V, S118Y (Fc fusion)” showed an MFI at 100 nM (CD112R [10]) of 2350.

With “variant PD-L2 IgV-Fc H15Q/T47A/K65R/S67L/Q82R/V89D (Fc fusion)” the MFI at 6.25 nM [6] was 20300 MFI.

In the case of “variant PD-L2 IgV-Fc I13V,H15Q,T47A,E58G,S67L,Q82R,V89D (Fc fusion)”, the Fold increase over wildtype PD-L2 IgV-Fc (IFN gamma, MLR) [11] is reported as 0.61 fold and the IFN gamma levels pg/mL (MLR) [11] is reported as 836 pg/mL.
